Laboratory results reported in US20140328762A1 (published 2014).

How the values were obtained:
JunLZ-Lb3b5 beacon = JunLZ-Lb3b5 beacon (UniProt P0AEX9 27-392 = MBP); test: fluorescence emission screening (FIG. 11)
Experimental: (§1) The graphs show a comparison of binding-induced fluorescence enhancement of JunLZ beacons. Concentration for all beacons is 1.0 and concentration of FosLZ or scrFosLZ is 10.0 μM. The assay was carried out in 0.1 M PBS, pH7.2 at room temperature. […] Numbers above the curves represent signal to noise ratios calculated from the maxim emission values that centered around 585 nm.
(§2) The purified fusion proteins were used directly without removing the MBP fusion partner. To prepare the beacons, TAMRA fluorophores were attached to the fusion proteins via the maleimide chemistry.

JunLZ-Lb1b3 beacon = JunLZ-Lb1b3 beacon (UniProt P0AEX9 27-392 = MBP); test: fluorescence emission screening (FIG. 11)
Experimental: as §1, §2

JunLZ-Lb2b5 beacon = JunLZ-Lb2b5 beacon (UniProt P0AEX9 27-392 = MBP); test: fluorescence emission screening (FIG. 11)
Experimental: as §1, §2

JunLZ-Lb1b4 beacon = JunLZ-Lb1b4 beacon (UniProt P0AEX9 27-392 = MBP); test: fluorescence emission screening (FIG. 11)
Experimental: as §1, §2

JunLZ-Sb3b5 beacon = JunLZ-Sb3b5 beacon (UniProt P0AEX9 27-392 = MBP); test: fluorescence screening assay (FIG. 11)
Experimental: as §1, §2

JunLZ-Sb1b4 beacon = JunLZ-Sb1b4 beacon (UniProt P0AEX9 27-392 = MBP); test: fluorescence screening assay (FIG. 11)
Experimental: as §1, §2

JunLZ-Sb1b3 beacon = JunLZ-Sb1b3 beacon (UniProt P0AEX9 27-392 = MBP); test: fluorescence screening assay (FIG. 11)
Experimental: as §1, §2

Measured: binding result

B1: scrFosLZ (MBP-scrFosLZ, fusion protein of MBP and the scrambled cFos leucine zipper) (other, not shown: large carriers)
chain: GGSGGTDTAQAETDQAEDEKSAAQTEIANALKEKEKAEFILA
notes: Negative control; also called scrambled FosLZ
no binding (tested: 10.0 µM): all assays above
